Data on 15 molecules can be found in patent publication US20240279344A1 (CDR LIFE, published 2024).

In test [1] the target is T1, control peptide 1 (…) displayed by HLA-A2 on T2 cells (human).
T1 construct: whole, on cells; also called Ctrl.1
The test is described as follows: flow cytometry on peptide-pulsed T2 cells, relative MFI (binding over peptide loading). As for the experimental part:
(§1) TAP-deficient T2 cells were pulsed with HLA-A2-restricted peptides (MAGE-A4 or control peptides) and incubated with MAGE-A4 binders followed by fluorophore-labeled specific detection antibodies and analysis by flow cytometry.
(§2) Briefly, T-B hybrid T2 cells were incubated with serum-free RPMI1640 medium containing MAGE-A4 or control peptides. […] Peptide loading efficiency was verified by using the ratio between median fluorescent intensity (MFI) of HLA-A2-binding antibody BB7.2 on peptide loaded T2 cells and MFI of unloaded T2 cells (>1). T2 cells were incubated with each of the specific antibodies followed by fluorophore-labeled detection antibodies (anti-kappa light chain or anti-Flag). The cells were fixed and fluorescence was measured by flow cytometry.
For orientation: Flow cytometry measures light scatter and fluorescence of single cells or particles in a stream.

For test [2], the target named is T2, control peptide 2 (…) displayed by HLA-A2 on T2 cells (human).
T2 construct: whole, on cells; also called Ctrl.2
Described as above. As for the experimental part:
as §1, §2

Test [3] deals with T3, HLA-A2/MAGE-A4 complex, recombinant (HLA-A*02:01 extracellular domain, human b2m, MAGE-A4 peptide 230-239 …) (human, UniProt P04439 25-299 at identity 0.94); P61769 21-119).
T3 construct: also called MAGE-A4 pMHC; MAGE-A4/HLA-A2 complex
Put plainly: direct ELISA, plate coated with HLA-A2/MAGE-A4 complex, serial dilution of the antibody. The protocol:
All available hits were evaluated for their ability to bind MAGE-A4/HLA-A2 complex and a control peptide/HLA-A2 complex in a direct binding ELISA assay. […] Briefly, 96 well ELISA plates were coated with purified human MAGE-A4/HLA-A2 complex or control HLA-A2 complex. Serial dilutions of antibody molecules were added to the plate and detected by an anti-kappa light chain-HRP (Invitrogen) or a purified rabbit anti-VHH (QVQ) followed by goat anti-rabbit IgG(H+L) HRP (Southern Biotech). […] 5B.
A general note: An ELISA detects its analyte on a solid surface through an enzyme-linked reagent.

Test [4] concerns the target T3, HLA-A2/MAGE-A4 complex, recombinant …. Put plainly: SPR. (SPR reads the build-up and loss of mass on a sensor chip optically.)
Test [5] concerns the target T4, control peptide 3 (…) displayed by HLA-A2 on T2 cells (human).
T4 construct: whole, on cells; also called Ctrl.3
Put plainly: flow cytometry on peptide-pulsed T2 cells, relative MFI (binding over peptide loading). The protocol: as §1, §2

B1: M0742 (VHH)
VHH: EVQLVESGGGLVQPRGSLRLSCAASGFTFSNSGMSWVRQAPGKGLEWVSSISSGGSSTTYLDSVKGRFTISRDNAKNTLYLQMNSLKPEDTAVYYCSWADLRGRGTQVTVSS
notes: Llama-derived VHH; detected with anti-VHH (ELISA) or anti-Flag (flow)
Regarding B1, the binding result in test [1] is “no binding”; in test [2] it was “binds”. Further, in test [3], the EC50 (read off the curve) (usually the midpoint of the concentration-response curve) was around 0.02 mg/L.

B2: M1335 (antibody, V domains shown)
VH: EVQLLESGGGSVQPGGSLRLSCTVSGFSLSNYAMSWVRQAPGKGLEWIGIVSSGGTTYYADSVKGRFTISKDTSKNTVYLQMNSLRAEDTASYYCAKDLYYGPSTYFVANLWGQGTSVTVSS
VL: SYELTQPPSVSVSPGQTASITCTADTLSRSYASWYQQKPGQSPVLVIYRDTSRPSGIPERFSGSNSGNTATLTISGTQAMDEADYYCATRPSSGSNFQLFGGGTKLTVL
notes: Variant with the HCDR2 motif SWA replaced by DSV
Consider B2, for which the binding result in test [4] is on record as “binds”.

B3: M1342 (antibody, V domains shown)
VH: EVQLLESGGGSVQPGGSLRLSCTVSGFSLSNYAMSWVRQAPGKGLEWIGIVSSGGTTYYADSVKGRFTISKDTSKNTVYLQMNSLRAEDTASYYCAKDLYYGPNTDYSAANLWGQGTSVTVSS
VL: SYELTQPPSVSVSPGQTASITCTADTLSRSYASWYQQKPGQSPVLVIYRDTSRPSGIPERFSGSNSGNTATLTISGTQAMDEADYYCATRPSSGSNFQAFGGGTKLTVL
notes: as for B2
Consider B3, for which the binding result in test [4] is recorded as “binds”.

B4: M0766 (Fab, V domains shown)
VH: PEQLEESGGGLVTPGGVLTLTCTASGFSFSSYGVNWVRQAPGKGLEWIGFIFGDGTTYYANWAKGRFTISKTSTTVDLKMTSPTTEDTATYFCARDGYGGYDYIINLWGQGTLVTVSS
VL: AQVLTQTPASVSAAVGGTVSISCQSSQSVVNNNWLAWYQQKPGQPPKLLIYKASTLESGVPSRFKGSGSGTQFTLTISGVQADDAATYYCLGEFSCSSADCHAFGGGTELEILR
For the molecule B4, the binding result in test [3] was “binds”.

B5: M0762 (Fab, V domains shown)
VH: QSVKESGGRLVTPGTPLTLTCTASGFTISSSAISWVRQAPGKGLEYIGIIRSGGTTDYASWAKGRFAISKTSTTVDLKITSPTTEDTATYFCARDPPYITSTYFDLWGQGTLVTVSS
VL: SELVLTQPQSVSGSLGQTVSISCKRARDSVESYDVHWYQQHPGKTPTIVIYKDDQRPSGVPDRFSGSIDSTSNSASLTITGLLAEDEADYFCQSFDGDAVVFGGGTQLTVTG
As to B5, the binding result in test [3] is listed as “binds”.

B6: M0743 (VHH)
VHH: EVQLVESGGGLVQPGGSLRLSCVASGFTFSWYTMNWVRQAPGKGFEWVASIGSGGTPTTYRESVKGRFTISRDNAKSTLYLQMNSLKPEDTAVYHCENGQARGQGTQVTVSS
notes: as for B1
Regarding B6, the binding result in test [1], in test [2] and in test [5] was “no binding” throughout. Besides, the half-maximal effective concentration (EC50 (read off the curve)) in test [3] is around 0.003 mg/L.

B7: M0707 (Fab, V domains shown)
VH: QQQLEESGGGLVTPGTPLTLTCTVSGIDLSSYAMGWVRQAPGKGLEWIGTINDGGSAFYASWVKGRFTISRTSTTVDLKITSPTAEDTATYFCAKTYGTNGDVYWGYFNLWGQGTLVTVSS
VL: ELVMTQTPASVSEPVGGTVTIKCQASQSIGSNLAWYQQKPGQPPKLLIYYESILASGVPSRFSGSGSGTEYTLTISGAQADDAATYYCQQGYSSSNILNAFGGGTEVVVKR
In the case of B7, the binding result in test [3] is on record as “binds”.

B8: M0709 (Fab, V domains shown)
VH: QSVKESGGRLVTPGTPLTLTCTVSGFSLSNYAMSWVRQAPGKGLEYIGIVSSGGTTYYASWAKGRFTISKTSTTVDLKITSPTTEDTATYFCAKDLYYGPTTYSAFNLWGQGTLVTVSS
VL: SELVLTQPQSVSGSLGQTVSISCKRARDNIEDYYVHWYQQHPGKTPTIVIHKDDQRPSGVPDRFSGSIDSTSNSASLTITGLLAEDEADYFCQSFDNDASPVFGGGTQLTVTG
Take B8: the binding result in test [1] and in test [2] was “binds” in each case.

B9: M0763 (Fab, V domains shown)
VH: QSVKESGGRLVTPGTPLTLTCTVSGFSLSNYAMSWVRQAPGKGLEYIGIVSSGGTTYYASWAKGRFTISKTSTTVDLKITSPTTEDTATYFCAKDLYYGPTTYSAFNLWGQGTLVTVSS
VL: SELVLTQPASVQVNLGQTVSLTCTADTLSRSYASWYQLKPGQAPVLLIYRDTSRPSGVPDRFSGSSSGNTATLTISGAQAGDEGDYVCATSDGSGSNFQLFGGGTQLTVTG
notes: also called M763; parental M0763 antibody
As for B9, the binding result in test [1], in test [2] and in test [5] was “no binding” each time. In addition, the “EC50 (read off the curve)” value in test [3] is around 1 mg/L.

B10: M0708 (Fab, V domains shown)
VH: QSVEESGGRLVTPGTPLTLTCTVSGFSLSNYAMSWVRQAPGKGLEYIGIVSSGGTTYYASWAKGRFTISKTSTTVDLKITSPTTEDTATYFCAKDLYYGPTTYSAFNLWGQGTLVTVSS
VL: SELVLTQPQSVSGSLGQTVSISCKRARNNIEDYYVHWYQQHPGRSPTIVIHKDDQRPSGVPDRFSGSIDSTSNSASLTITGLLAEDEADYFCQSFDNNANPVFGGGTQLTVTG
Regarding B10, the binding result in test [3] is recorded as “binds”.

B11: M0710 (Fab, V domains shown)
VH: QSVKESGGRLVTPGTPLTLTCTVSGFSLSNYAMSWVRQAPGKGLEYIGIVSSGGTTYYASWAKGRFTISKTSTTVDLKITSPTTEDTATYFCAKDLYYGPTTYSAFNLWGQGTLVTVSS
VL: SELVLTQPQSVSGSLGQTVSISCKRARDNIEDYYVHWYQQYPGKTPTIVIYKDDQRPSGVPDRFSGSIDSTSNSASLTITGLLAEDEADYFCQSFDNNANVVFGGGTQLTVTG
For B11, the binding result in test [3] was “binds”.

B12: M0705 (Fab, V domains shown)
VH: QQQLVESGGRLVTPGTPLTLTCTASGIDLNSNAMSWVRQGPGKGLEWIGDIWSGGYTDYASWAKGRFTISKTSTTVDLKMTSLTAADTATYFCARDRLAGDGVVDYDLWGQGTLVTVSS
VL: ELDMTQTPASVEVAVGGTVTIKCQASQNIYSNLAWYQQKPGQRPKLLIYGASTLASGVPSRFKGSGSGTEYTLTINGVQAADAATYYCQQGFSSSNVDNVFGGGTEVVVKR
Consider B12, for which the binding result in test [3] is reported as “binds”.

B13: M0739 (VHH)
VHH: EVQLVESGGGSVQPGGSLRLSCAASGFTFSRSTMSWVRQAPGKGLEWVSSISGSGGVTTYTTSVKGRFTISRDNAKNLMYLQMNSLNPEDTAVYYCANGDNRGPGTQVTVSS
notes: as for B1
As for B13, the binding result was “no binding” in test [1], “binds” in test [2] and “binds” in test [3].

B14: M0702 (Fab, V domains shown)
VH: QEQLEESGGGLVTPGTPLTLTCTASGFSLSSYAMIWVRQAPGKGLEWIGTINDGGTAFYANWVKGRFTISRTSTTVDLKMTSPTTEDTATYFCARAYGSNGDVYWGYVNLWGQGTLVTVSS
VL: ELVMTQTPASVSEPVGGTVTIKCQASQSIGSNLAWYQQKPGQPPKLLIYAAANLASGVSSRFKGSRSGTEYTLTISGVQAADAATYYCQQGYSSSNVANVFGGGTELEILR
Turning to B14, the half-maximal effective concentration (EC50 (read off the curve)) in test [3] was around 0.6 nM.

B15: M0747 (VHH)
VHH: EVQLVESGGGLAQAGGSLRVSCVASGRPFTKYAWGWFRQAPGKAREFVATITWDGGKTDYADSVKGRFTISKDSAENSIYLQMNSLKPEDTAVYYCAADRNYCVGHRCYVRPDDYDYWGQGTQVTVSS
notes: as for B1
As for B15, the binding result in test [1] is recorded as “no binding”; in test [2] it was “no binding”; in test [5] it was “no binding”; in test [3], “binds”.
